The source of these data is US20230085393A1.

Assay [1] deals with ZIKV Dakar strain virus (African lineage), E2 antigen on virions (Zika virus).
In assay [2] the target is ZIKV Brazil strain virus (Asian lineage), E2 antigen on virions (Zika virus).

B1: ZIKV-120764-350 (antibody, V domains shown)
VH: DVQLVESGGGLIQPGGSLRLSCAASGFTARTNYMTWVRQAPGKGLEWVSVIYSGGSTIYADSVKGRFTISRDNAKNSLYLQMNSLRAEDTAVYYCARDRGYLDHWGQGTLVTVSS
VL: EIVLTQSPATLSLSPGERATLSCRASQSVTNYFAWYQQRPGQAPRLLIYDVSNRATGIPARFSGSGSGTDFTLTISSLEPEDFAVYYCQQRSNWPYTFGQGTKVEIK
For the molecule B1, the IC50, RTCA cellular impedance neutralisation assay on Vero cells in assay [1] and in assay [2] was < 0.1 mg/L in each case.

B2: ZIKV-120765-491 (antibody, V domains shown)
VH: EVQLVESGGGLVQPGGSLRLSCAASGFTFIRYAMSWVRQAPGKGLEWVSDISGSGGSTFYADSVKGRFTISRDNSKNTLYLQMNSLRAEDTAVYYCARDDEGYTTNWYDAYDIWGQGTMVTVSS
VL: DIQMTQSPSSLSASVGDRVTITCRASQSIGSYLNWYQQRPGKAPKLLIYTASSLQSGVPSRFSGSGSGTDFILTISSLQPEDFATYYCQQNYNIPQVTFGPGTKVDIK
For B2, the IC50, RTCA cellular impedance neutralisation assay on Vero cells in assay [1] and in assay [2] was < 0.1 mg/L in each case.
